Source: the DeepSol protein solubility set

Test: soluble on expression in E. coli; label from the status in PepcDB or PDB records

| Sequence | soluble on expression in E. coli |
| --- | --- |
| TPEHRAVAREVAAETFVLLKNENHLLPLEEKGKIALIGPMADARNNMCGMWSMTCTPSRHGTLLEGIRSAVGDKAEILYAKGSNVYYDAEMEKGAVGIRPLERGNDQQLLAEALRTAARADVIVAAVGECAEMSGESPSRTNLEIPDAQQDLLKALVKTGKPVVLLLFTGRPLILNWESEHIPSILNVWFGGSETGDAVADVLFGKAVPCGKLTTTFPRSVGQLPLFYNHLNTGRPDPDNRVFNRYASNYLDESNEPLYPFGYGLSYTDF | not soluble |
| MASIFESPELIGAFIGEVEEQLQLLENNVVELEKNGGTAEVVQELFRAAHTLKGSSATMGFEKMKTLTHEMENVLDKIRNGLLEISRPVIDVLFECLDCLNMLKEDFVSDSNNVKTEITPVITKLKEISSENETNNQNSDSDKAENLETGRREQPIFVLDEKQQEQINQALGIGQNVLVCEVEILEDSQMKSVRACLIMNFLNEWGTVINMVPNVMEIPIDSDVGKVAFLVVTQMSADELRQKVQNDLMDIKEVRVFPYFIQNSISQTKDGETGVRDKDNSSGVKTATEEKRVVHTVRIDVDRLERMMDLVGELVIEQIRIAQVANNLYNQYPSDETVDDLIGISNRVSILINELQEGIMKTRMIPVQQLFSRFPRMVRDLSVSLNKEVNLVLEGGETEIDRTIMEEMSDPLIHLIRNAIDHGIENPEIRKKLGKPEQGTLRVTALPEDSNVIITVEDDGAGIDPQEIKQSAIKKRIVTEQEANNMTEQQLINLIFQTGFSTSQKVSDVSGRGVGMDIVKTHIEKLNGIIDVETCAGSGTKFIIKLPIKLPLTLAILKGLLVKISNETYALPMNNVVEIVRKPKNEIESINGQAVAVIRDRAIPLIWLHDYFGIPRGNERKNTLIVLLGIAEKRFGLVVDELIGNQEIVVTNLGSYIGKVEGISGATILGDRSVACILDVVGIAKIVNSRKVSRIDVEYSKQ | not soluble |
| MGSDKIHHHHHHMMNKPAPRELEVIRSTYITPHMLRITLGGAGLAGFPADQESAYIKLLFPQAGERPLMRTYTIRQQRDDEIDVDFVLHDTDGPASSWAKTAQVGELIQIGGPGLKKLINFEADWFLLAGDMTALPAISVNLAKLPNNAVGYAVIEVLSEADIQPLVHPEHVELHWVINPEADPEGRPLVERIAQLPWLAGEPAVWIACEFNSMRALRRHFKQAHALPKSHFYTSSYWKIGCNEGEHKLVKQEDEQLENGASV | not soluble |
| MAHHHHHHMSSSVQNHQQTLLQARTHVAARDTTAVAILGAKAGSNGSSQSFRPAAQCLEHTQSSFNQTDISQRPPFIASEAATVSLLRRMEVLDNGRAGSTSDNAAANVVPSHQSVQRQRVTAHTLNKTTLANNDVTGEAPKPPSMAESTLKAGAQRRRIVKSNRNAVASRGPSESLKKCGPAVNVNDDGHRNDSAMAMNVPTQITVAARGGARGRVFHSNPFVTRNGKRFSAQNARRGISTATLSPPHTAITVSDDYSADFSVHDAFDVLSPMTPANPTYQKTLQVQQQQQWHSGSWIYDLNAGANTDSFTDDGSPIEFVVEDFELDDTVLGGTKHNDFGGQASKGGPDRFSTAAASNPDRLRQQNHARWAASRGPTRGATLASGTTATQQAGGARHLTTKSTMGSDPAGPDSPSGVLKERARLAKGVKLHNGPPMIKIPPLALDVINANRKTGKASYKVSHPKPGVVVPDIESSSTECSDMPNNSSLQGNFEALGVKVSNSPLGGRGSIEGRGNDKRVGGVHNGSLLSGSAVDGHRAGAAGSSAYKGSLQNCGRHGMLSMPFDGTSNDSQVHEASPSRNAREGFRGNSGGFGMHGGPFGSVQRQRWLVEADKHSSGESRPPMTNARKKAKCCVVM | not soluble |
| MVSSLFINPFSEDAREIVRKYGSLDTIDDTRDELLEIGRRTRGQNLADNSLLPASIAELAVKRLEWYLRRQRKDFNHRDYAYLMNPEIEEYDVLAFYILAQAAGAGFMKASREARLVVESAGAMVEDRLNVFGGEREEIMAEVLYELGSEGLRWTELADLLGSGKLKLTDLILKEGRVIIDRDEFITSFQDSIRDRSPDRLYDILVGLEVRETMISRMIMQRTEEYIGMVREMSSTVEVHPLILETAERIRETVEEIMSFTGGPVKSARPGKLVQEAFPPCIRGTLDGVRSGNRNDAIVLLLTSFISYARLYPSVFRDRTPMKVSDLDPDLRITLGEILPVIYDAADRCEPPLFEDDPQEKLNITAKLGFGVHDMPELENEGESKWYTPMSCEKIKIHLPDLCRPDKLCSSISNPLTYYNRKRWKLRSSGEKEELEHHHHHH | not soluble |
| METDPDYSMVLLTENFPPYNMAINGKNFAQEDNIDGIAVDIVREMFKRAGIKYSLTLRFPWDRIYKLALEKPGYGVFVTARLAEREDKFKWVGPIGPDDWVLLAKGDSPITLGSLDEAKKYRIGAYKGDAIAEFLGKNGFEADLALRDQENAQKLVKGQIDLWASGDPAGRYLAKQEGVTGLKTVLRFNSDQLYLALNRETPDEVVQKLQAALDGMRKEGFVEDILNSYLLEHHHHHH | soluble |
| RVVTQNEIDRTIPVGAIMMWAADSLPSDAWRFCHGGTVSASDCPLYASRIGTRYGGSSSNPGLPDMRGLFVRGSGRGSHLTNPNVNGNDQFGKPRLGVGCTGGYVGEVQKQQMSYHKHAGGFGEYDDSGAFGNTRRSNFVGTRKGLDWDNRSYFTNDGYEIDPASQRNSRYTLNRPELIGNETRPWNISLNYIIKVKE | soluble |
| MAHHHHHHMSITAGTLPPVKGTSVKKSPRKGRPADSMGNGTGAAADPHCYHKCRCYGHDDTLPNYKLLTIPRTNNYYAATGGCPCVPRVAAHPGSWRLKEGQLRSSTYRCGTGCIKKSAALTLGCCHHSGDQYGWRRGPHTVLDKNTAATGKCDTFGNLAFKSTSRAYCAVGGDDLSDVSSASPQKLEDLEALILEEHQQRMRVEEDVDELAGIQRNGTADWYKKIHHDAERRRLLAQISEVELQDLLRDVKNIVDRPLNQTNMDLLRRILHRQEHLQRQREYYAAQELE | not soluble |
| MGSDKIHHHHHHMDWEDAPLPYKLYRNVPIIPLSLEIPLSLPNSSTTPTLNEIGHYLWCSFGLTQLCQLNSEKILFRRSIPSGGALYPNELYIYLKIDDYPDGIYHYDAAHHRLILIREGNFDSYLTEALGNRCNLQSCFGAAFVSTMFWKNFFKYNNFSYRLQGLDSGVLIGQLLECAKQFGYTNGVYFQFLDRAINHLLGLSEGEESVYAVLPFSTEPQTNWFHNDYREIKTVTSHELLQQIPPLAHEHFVRSKHVNEYPMITKINEASMIESTAQFQTLAHEEHFQHHAHAVQLPKVERLSYDFLQLCRKRYSPDADFILTKWDAAELATLLQEASLSFPYYNDLDGQYVNENARVSLYGCFYNVKDIENGAYSYNSKTHSIQPLRYGDLRYPLQSSMTMDNVNLFQVPLCLHVVGKKDYYTNALGYRGYRIHQMEAGILVHKLVFAATAMGMAGHPLLSFDTNSCDQLYGIEAGNETSLIQIPVGAYRARNWLKGALRN | not soluble |
| EMIHHAKNQLIMCSPYFIPDESMLEAVTSACYRGVRVELLVSEQADQFVVDHAQSSYYQTLLEAGVHIYRYHAPAVLHSKFLIADPHGVAVSVMGSSNMDMRSFGLNYEVSLMTLQGQLTHLLYELAETYKENSTELTLEEWNQRGIVRRYVDNIMKLTSALQ | not soluble |
| MKLYYKVGAASLAPHIILSEAGLPYELEAVDLKAKKTADGGDYFAVNPRGAVPALEVKPGTVITQNAAILQYIGDHSDVAAFKPAYGSIERARLQEALGFCSDLHAAFSGLFAPNLSEEARAGVIANINRRLGQLEAMLSDKNAYWLGDDFTQPDAYASVIIGWGVGQKLDLSAYPKALKLRERVLARPNVQKAFKEEGLN | soluble |
| MKQLSSFDIKACVRELKELEGGKVEKVYHHPPDEIRIRIYAGRKVDLVIEAGRRIHLTKFPKQAPRFPSAFAMLLRKHLEGARIKKIEQYDFDRVVVIEFERFGEIRRIVAELFSKGNVVLLNEENRVIMPLKHTIKVGELYRFPEQRERKDEDREVVRVLAMSGLGGLYAEEVCLRAGIDKKKKYAELSEDERKKIDEEIERLMNFTPKPQIILKDGDYLDVVPMDLLYYSNYEKKYFESFNDALDDYFSKKLAEMDELESMKSEELEKLKKRLEIQKESLRKFEDEAESFRKIGDAIYENYQMVEKIIEAFRAARERKSWDEIKEIVARDEKLKKLVKAIKPEKNAIVVKVGDFDVELEIKKSIHENADLYYEKAKKAREKAEGVKRAIEATLREMERVEEKLEKKLVTSIKVRRKKEWYE | not soluble |
| MSLNKTFTVEKANRFIAENKHLVNTQYKPEEHFSAEIGWINDPNGFVYFRGEYHLFYQFYPYDSVWGPMHWGHAKSKDLVTWEHLPVALAPDQDYDRNGCFSGSAIVKDDRLWLMYTGHIEEKTGVRQVQNMAFSDDGIHFEKISQNPVATGSDLPDELIAADFRDPKLFEKDGRYYSVVAAKHKNNVGCIVLLGSDNLVEWQFESIFLKGVEHQGFMWECPDYFELDGKDCLIMSPMRYQREGDSYHNINSSLLFTGKVDWGEKCFIPESVQEIDHGQDFYAPQTLLDDQNRRILIAWMQTWGRTLPTHDQEHKWACAMTLPRILRLEDGKLRQFPVKKGQYQIQIDKDCHYHLGNDTDYLEFGYDSNVQQVYIDRSHLIQKILGEEEQDTSRRYVDIEAKELEVVLDKNSIEIFVNQGEASLTATYYLTVPAELSRIDEGHHHHHH | soluble |
| MAPSKSKEKKEKAKTSRRKSGSQTKKDTTSTVSEGKSPTEVADQLLKAKSRPQMYDLLKGHAAFNVPEFVKNLPVNVRLPIPIRDNRRVLCGSDEEFFPGQYVRMEGAEYIIVQAPTKKSSKLIWRVILKDHIRILVCLCHDEQMSGSDDGKCYTYFPTELEQKMEAELMKGTLSIVCKAREGLSMGATKYELELTDSEVVIDKNSDDPNASNYKSHRLIVFHMNTWSGQKPTSGNALEQAQNVALFFREVKKFEMDILRKSMENFVPPVMLQSFDGINRASTGWVALMLLRDVEKRECFDVPSLIKAIMKFRNGSISTYYQFCFCMAVCLNIGKHTNWCANDCSTALTDLMEKFGNRKLNELGNLAV | not soluble |
| MKLNLKNPLIFFDLETTGVDLVRDRIVEISILKVMPDGSEECKTRRINPERPIPPESTAIHGIRDEDVKDCPPFRSVAKSLAQWIEGCDLAGFNSTRFDVPMLVEEFLRAGVDIDLRHRKLIDVQTIFHKMEPRTLEAATRFYCNRTLENAHSAEADTRATYDVFKAQLDRYEGTLENDMAFLADFSRQSRNVDFAGRLVYDDNDNVIINFGKYRGRKALDVLRTDSGYYGWIMDADFTLNTKQEFTRLRMSLNNPETK | soluble |
| MIGRVFRIFREKGGILKALGLWEWYENLPHKYQKKVKHYYSLKTIKSINFPYKAKHFDTGEVENVLYTKRTFLGTIAQTALLEGDLEFAEWLYNEALKMEGSPYEAHLILNDLVLLAQKQRDLEKVKKYVLQDVELYPEYKEELKSRWGGTLPQIMAFEIYVYLLEREGKIKEALELVEWIKKEGITYPYYDQVKERLLQKLK | not soluble |
| MIGYLFGNRVLVDDKELPLIEAYYLLDKGELEVYEDDKKLSKEEFLKKCLTYDERFLIRYKAYKELRDKGYTLGTALKFGADFRVYDIGVIPKKGKRSEREHSKWVLYPVSKDETFDFYEFASKNRVAHSTRKKMLMGIVSDKIEFIEVSWKKP | soluble |
| MTTVSEQANFTFSPEEVARFERDGYIGPVKIFEPEEMTRRWNIIRRQLLDRSLAIYPDSNGKANISNYDRHLDIDLLAEHIMRPEIVDRVGSLIGRNLLCWRSEFFPKYQGDEGTDWHQAATFAHATGKPQIIWPSDEGRPAFIGTITVWTAFTHSTEQNGCLQLMPGTHTSMNYDESKGMDYDADAINQREKDGIKRGFFGYDYRSLQKDPDWKPDESQAYPMVLKPGEAVIFWSNTMHASLPHTGSKTDYRMGFAARYVPTQVQVYPGTENLTEYGDGINLEKYGAVLTSGVDEYGHNRIARTSQRGYEFVPRQIPS | soluble |
